Assay results taken from patent US20240174744A1 (SCIRHOM, published 2024).

Target: T1, human iRhom1, endogenously expressed on RH-30 cells (human, UniProt Q96CC6 1-855)
T1 construct: RH-30 cells are described as endogenously negative for iRhom2 but endogenously expressing iRhom1; also called NP_071895.3
T1 sequence: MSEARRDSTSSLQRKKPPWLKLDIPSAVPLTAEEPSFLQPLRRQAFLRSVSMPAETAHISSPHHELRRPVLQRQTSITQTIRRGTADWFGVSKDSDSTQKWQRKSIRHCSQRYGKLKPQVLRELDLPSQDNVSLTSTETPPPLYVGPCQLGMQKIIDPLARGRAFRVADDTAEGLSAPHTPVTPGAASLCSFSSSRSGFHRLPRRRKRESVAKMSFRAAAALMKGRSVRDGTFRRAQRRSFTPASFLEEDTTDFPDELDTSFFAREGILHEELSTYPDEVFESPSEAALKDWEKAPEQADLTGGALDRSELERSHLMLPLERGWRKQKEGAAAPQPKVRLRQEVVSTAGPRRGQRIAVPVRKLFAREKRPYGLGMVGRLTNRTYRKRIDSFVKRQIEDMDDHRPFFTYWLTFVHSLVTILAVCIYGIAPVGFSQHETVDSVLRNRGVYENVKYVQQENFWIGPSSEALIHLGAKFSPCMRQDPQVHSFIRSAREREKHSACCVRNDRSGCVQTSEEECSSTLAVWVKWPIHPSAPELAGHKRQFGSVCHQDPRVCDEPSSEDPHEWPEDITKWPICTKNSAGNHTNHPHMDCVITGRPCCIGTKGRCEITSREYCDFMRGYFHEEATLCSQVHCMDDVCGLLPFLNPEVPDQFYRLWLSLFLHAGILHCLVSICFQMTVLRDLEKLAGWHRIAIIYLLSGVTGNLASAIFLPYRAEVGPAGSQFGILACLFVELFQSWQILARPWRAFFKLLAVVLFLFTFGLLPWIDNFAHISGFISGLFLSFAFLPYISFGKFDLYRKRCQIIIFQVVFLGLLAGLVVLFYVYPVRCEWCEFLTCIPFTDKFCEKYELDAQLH
Test: FACS, RH-30 cells (endogenous iRhom1, no iRhom2)
Description: In brief, human RPMI-8226 cells (Deutsche Sammlung von Mikroorganismen und Zellkulturen, Germany), THP-1 cells (American Type Culture Collection, USA) and RH-30 cells (Deutsche Sammlung von Mikroorganismen und Zellkulturen, Germany) were harvested with 10 mM EDTA in PBS, washed and resuspended in FACS buffer (PBS, 3% FBS, 0.05% sodium azide), and seeded in Nunc U-bottom 96-well plates (Thermo Fisher Scientific, USA) at approximately 2×10⁵ cells per well. In order to pellet cells and remove supernatants, the plates were centrifuged at 1,500 rpm and 4° C. for 3 minutes. For primary staining, cells were resuspended in 100 μl per well of either FACS buffer alone (controls), a 1:60 dilution of the hybridoma supernatant, the primary material leading to the antibodies 3, 16, 22 and 42 of the present disclosure in FACS buffer or 3 μg/ml of the antibodies 16, 22 and 42 of the present disclosure in FACS buffer and incubated on ice for 1 hour. Afterwards, plates were centrifuged at 1,500 rpm and 4° C. for 3 minutes and washed twice with 200 μl per well of FACS buffer. […] Finally, cells were resuspended in 150 μl per well of FACS buffer and analyzed using a BD Accuri™ C6 Plus flow cytometer (Becton Dickinson, Germany).

B1: antibody 22 (antibody, V domains shown)
VH: QVTLKESGPGILQPSQTLSLTCSFSGFSLSTFGMGVGWIRQPSGKGLEWLAHIWWDDEKYYNSALKSRLTISKATSKNQVFLKIANVDTADTATYYCARISNYGSNYWYFNVWGTGTTVTVSS
VL: QVVLTQSPALMSASPGEKVTMTCSAGSSVSYMYWYQQKPGSSPRVLIYDTSNLASGVPARFTGSGSGTSYSLTISRMEAEDAATYYCQQWNSYPLTFGAGTKLELK
notes: Mouse IgG, kappa light chain; also called clone #22; m22
binding result: no binding (tested: 3 µg/ml)

B2: antibody 42 (antibody, V domains shown)
VH: QVTLKESGPGILQPSQTLSLTCSLSGFSLSTFGRGVGWIRQPSGKGLEWLAHIWWDDEKYYNPALKSRLTISKDTSKNQVFLRIANVDTADTATYYCARIQNYGSNYWYFDVWGTGTTVTVSS
VL: LIVLTQSPAIMSASPGEKVTMTCGATSRISYMFWYQQKPGSSPRVLIYDTSNLASGVPVRFSGSGSGTSYSLTISRVEAEDVATYYCQQWNSYPLTFGAGTKLELK
notes: Mouse IgG, kappa light chain; also called clone #42; m42
binding result: no binding (tested: 3 µg/ml)
